According to PMC6135941:

Molecular target: 62 kDa active MMP-2
Assay: enzyme inhibition kinetics

- Ki: 0.154 nM
Substance: TIMP-2-His6 Y90E expressed in HEK293H cells (from UniProt P16035 27-220) (natural protein)
